# Laboratory results published in patent US12551583B2, “Radiolabeled ligands for targeted PET/SPECT imaging and methods of their use” (MEMORIAL SLOAN KETTERING CANCER CENTER, priority 2016, dated 2026).
# Assays:
# [1] = tested on: 4T1 orthotopic tumor-bearing BALB/c mice; test: in vivo; conditions: mouse
# Protocol: (§1) 4T1 orthotopic BALB/c mouse model. The cells were removed from the flasks, concentrated, and resuspended in minimal media for cell counting. The cells were then diluted to contain approximately 1 million cells in 30 μL of media (for orthotopic allografts). Following an MSKCC Institutional Animal Care and Use Committee approved protocol, 8-10 week old BALB/c mice (Charles River Laboratories, Wilmington, MA) were surgically implanted with one million 4T1 cancer cells into the first or the last mammary fat pad of the right side of the animal using aseptic surgical techniques and sterile staple closures while the mice were under anesthetic. Additionally, mice were given injections of meloxicam (24 h pain killer) in the scruff and bupivacaine intradermally prior to surgical incisions. One day post surgery, the mice were again given meloxicam and checked to ensure that the closure was healing. Two and three days post surgery, the mice were checked to ensure that the animals were healthy and recovering well from the surgery. Five to seven days post surgery, the staples were removed. Five to nine days post surgery, the mice were injected with 50-75 μCi (0.9-0.4 nmol) of the respective radiopharmaceutical for in vivo biodistribution or 500-600 μCi (9-11 nmol) for in vivo imaging. The mice receiving ^64Cu-NOTA-pHLIP were sacrificed at 1, 2, 4, 12, 24, 36, and 48 h; the mice receiving [^18F]—AlF-NOTA-pHLIP were sacrificed at 0.5, 1, 2, 4, 6 and 8 h. The 4T1 tumors in this study were purposely used 5-9 days after inoculation to ensure lower tumoral pH. Animal models. Animal studies were conducted according to MSKCC IACUC-approved animal protocol. 4T1 (orthotopic breast cancer allografts of 1×10^6 cells surgically implanted in the mammary fat pad) and B16-F10 (orthotopic melanoma allografts of 1×10^5 cells injected intradermally on the shoulder) tumors were orthotopically inoculated in media in female BALB/c and C57Bl/6 mice (Charles River Laboratories (CRL)), respectively. Additionally, PC3 (3×10^6 cells) or LNCaP (3-6×10^6 cells) tumors were subcutaneously xenografted on the shoulder of athymic nude male mice (CRL). Mice were used once tumor volumes were approximately 90-300 mm^3. In vivo animal PET imaging and biodistribution. Mice were injected with radiolabeled NOTA-pHLIP derivatives i.v. (500-700 μCi/mouse for PET or SPECT imaging studies and 25-100 μCi/mouse for biodistribution studies). All injections were less than 200 μL with <10% EtOH in sterile PBS. PET images were obtained with the mice under anesthesia in an Inveon PET-CT or microPET Focus 120 (Siemens) at 0.5-48 h p.i. All images were analyzed using ASIPro VM (Concorde Microsystems). SPECT images were obtained with the mice under anesthesia in a NanoSPECT/CT Plus at 4-24 h p.i. All SPECT images were reconstructed using HiSPECT and analyzed using InVivoScope. Dissections for ex vivo biodistribution were performed on mice after CO2 asphyxiation or cervical dislocation while anesthetized at reported time points. Weight of the syringe prior to injection and after injection was used to determine the mass of injectate. Activity of the syringe prior to injection and after injection was used to determine the percent of injectate administered. The mass injected was corrected by the percent of radioactivity injected. Four to five aliquots (10 μL) were weighed and counted as internal standards for each study. All of the collected organs were counted using an automatic gamma counter (Wizard 3″, PerkinElmer, Waltham, MA). The total injected dose was found as the mass injected dose×fraction radioactivity injected×internal standard average counts/g. The percent injected dose (% ID) was determined as the counts for the tissue×100/total injected dose. The % ID/g was calculated as the % ID/tissue weight. The average and standard deviation of the % ID and % ID/g was determined using normal methods (n−1) for each set of mice.
# tumor = conditions: in vivo; cited from earlier work
# [2] = tested on: PC3 tumor-bearing male nude mice; conditions: mouse, in vivo
# Protocol: (§2) PC3 shoulder nude mouse xenografts. The cells were removed from the flasks, concentrated, and resuspended in minimal media for cell counting. The cells were then diluted to contain approximately 3 million cells in 150 μL of 1:1 media and matrigel (for shoulder xenografts). Following an MSKCC Institutional Animal Care and Use Committee approved protocol, 150 μL of the cell suspension was injected subcutaneously in 6-9 week old nude male mice (CRL). Mice were used in studies at 3 weeks post inoculation. The mice were injected with 50-75 μCi (0.9-0.4 nmol) of the respective radiopharmaceutical for in vivo biodistribution or 500-600 μCi (9-11 nmol) for in vivo imaging. […]
# (§3) In vivo animal PET imaging and biodistribution. […] All images were analyzed using ASIPro VM (Concorde Microsystems). […] All SPECT images were reconstructed using HiSPECT and analyzed using InVivoScope. […] The mass injected was corrected by the percent of radioactivity injected. Four to five aliquots (10 μL) were weighed and counted as internal standards for each study. All of the collected organs were counted using an automatic gamma counter (Wizard 3″, PerkinElmer, Waltham, MA). The total injected dose was found as the mass injected dose×fraction radioactivity injected×internal standard average counts/g. The percent injected dose (% ID) was determined as the counts for the tissue×100/total injected dose. […]
# in vivo = conditions: female, BALB/c, mouse, iv, 50 uCi, total radioactivity, 4T1 tumoral uptake
# Protocol: as §1
# [3] = tested on: LNCaP tumor-bearing male nude mice; conditions: mouse, in vivo
# Protocol: as §2, with “LNCaP shoulder” for “PC3 shoulder”, “approximately 3-6” for “approximately 3”, “matrigel (or” for “matrigel (for”, “in 6-8” for “in 6-9”, “at 3-8” for “at 3”
# as §3
smiles,measurement,setting,value
"CC(C)C[C@@H](NC(=O)[C@@H](CCC(=O)O)NC(=O)[C@@H](CC(C)C)NC(=O)[C@@H](CC(C)C)NC(=O)[C@@H](CC(C)C)NC(=O)[C@H](NC(=O)[C@@H](CCC(=O)O)NC(=O)[C@H](NC(=O)[C@H]1CCCN1C(=O)[C@@H](Cc1ccccc1)NC(=O)[C@@H](CC(C)C)NC(=O)[C@@H](Cc1c[nH]c2ccccc12)NC(=O)[C@@H](CCC(=O)O)NC(=O)[C@@H](CC(C)C)NC(=O)[C@@H](Cc1ccc(O)cc1)NC(=O)[C@@H](CCCNC(=N)N)NC(=O)[C@@H](C)NC(=O)[C@@H](Cc1c[nH]c2ccccc12)NC(=O)[C@H]1CCCN1C(=O)[C@@H](CC(N)=O)NC(=O)[C@@H](CCC(N)=O)NC(=O)[C@@H](CCC(=O)O)NC(=O)[C@@H](CCC(=O)O)NC(=O)[C@@H](CS)NC(=O)[C@@H](C)NC(=S)Nc1ccc(CC2CN(CC(=O)O)CCN(CC(=O)O)CCN2CC(=O)O)cc1)[C@H](C)O)[C@H](C)O)C(=O)O (single isomer, unassigned) [^64Cu-NOTA-Var7, metal not drawn]",kidneys-to-large intestine ratio,[1],0.32±0.07
same,"biodistribution, Blood","[1]; iv, 4 h",0.833 ± 0.068 % ID/g
same,"biodistribution, Bone","[1]; iv, 4 h",0.229 ± 0.093 % ID/g
same,"biodistribution, Brain","[1]; iv, 4 h",0.042 ± 0.004 % ID/g
same,"biodistribution, Heart","[1]; iv, 4 h",0.35 ± 0.04 % ID/g
same,"biodistribution, Kidneys","[1]; iv, 4 h",6.790 ± 0.461 % ID/g
same,"biodistribution, L. intestine","[1]; iv, 4 h",7.78 ± 0.61 % ID/g
same,"biodistribution, Liver","[1]; iv, 4 h",0.739 ± 0.041 % ID/g
same,"biodistribution, Lungs","[1]; iv, 4 h",0.996 ± 0.066 % ID/g
same,"biodistribution, Muscle","[1]; iv, 4 h",0.118 ± 0.025 % ID/g
same,"biodistribution, Pancreas","[1]; iv, 4 h",0.198 ± 0.043 % ID/g
same,"biodistribution, S. intestine","[1]; iv, 4 h",0.307 ± 0.077 % ID/g
same,"biodistribution, Skin","[1]; iv, 4 h",0.563 ± 0.145 % ID/g
same,"biodistribution, Spleen","[1]; iv, 4 h",0.279 ± 0.016 % ID/g
same,"biodistribution, Stomach","[1]; iv, 4 h",0.300 ± 0.076 % ID/g
same,"biodistribution, Tumor (4T1 tumoral uptake)","[1]; iv, 4 h",0.546 ± 0.075 % ID/g
same,overall tumor uptake,tumor,1.36±0.43 % ID/g
"CC(C)C[C@@H](NC(=O)[C@@H](CC(C)C)NC(=O)[C@@H](CC(=O)O)NC(=O)[C@@H](CC(C)C)NC(=O)[C@@H](CC(C)C)NC(=O)[C@@H](CC(C)C)NC(=O)[C@H](NC(=O)[C@@H](CC(=O)O)NC(=O)[C@H](NC(=O)[C@H]1CCCN1C(=O)[C@@H](Cc1ccccc1)NC(=O)[C@@H](CC(C)C)NC(=O)[C@@H](CC(C)C)NC(=O)[C@@H](CC(=O)O)NC(=O)[C@@H](CC(C)C)NC(=O)[C@@H](Cc1ccc(O)cc1)NC(=O)[C@@H](C)NC(=O)[C@@H](CCCNC(=N)N)NC(=O)[C@@H](Cc1c[nH]c2ccccc12)NC(=O)[C@H]1CCCN1C(=O)[C@@H](CC(N)=O)NC(=O)[C@@H](CCC(N)=O)NC(=O)[C@@H](CC(=O)O)NC(=O)[C@@H](CC(=O)O)NC(=O)[C@@H](CSC1CC(=O)N(CCNC(=O)CN2CCN(CC(=O)O)CCN(CC(=O)O)CC2)C1=O)NC(=O)[C@@H](C)N)[C@H](C)O)[C@H](C)O)C(=O)N[C@H](Cc1c[nH]c2ccccc12)C(=O)O (single isomer, unassigned) [^64Cu-NO2A-cysVar3, metal not drawn]",tumor:bone ratio,[2],2.7±0.6
same,tumor:muscle ratio,[2],7.4±1.3
same,tissue uptake at 24 h,in vivo,19.2 ± 1.8 %ID/g
same,tumor:bone ratio,[3],4.2±1.7
same,tumor:muscle ratio,[3],6±2
